Experimental findings from patent publication US20220033516A1 are described below.

The labels stand for the following.
B1: MHR0009/CD3 (bispecific antibody, human IgG1, kappa, N297A)
heavy 1: QSLEESGGRLVTPGTPLTLTCKASGFSLSSYAMIWVRQAPGKGLESIGMVYIHSGGTYYASWAKGRFTISKTSTTVDLKITSPTTEDTATYFCARYNGGGSGTDLWGPGTLVTVSSASTKGPSVFPLAPSSRSTSESTAALGCLVKDYFPEPVTVSWNSGALTSGVHTFPAVLQSSGLYSLSSVVTVPSSSLGTKTYTCNVDHKPSNTKVDKRVEPKSCDKTHTCPPCPAPELRRGPKVFLFPPKPKDTLMISRTPEVTCVVVDVSQEDPEVQFNWYVDGVEVHNAKTKPREEQFASTYRVVSVLTVLHQDWLNGKEYKCKVSNKGLPSSIEKTISKAKGQPREPQVYTLPPSREEMTKNQVSLTCLVKGFYPSDIAVEWESNGQPENNYKTTPPYLDSDGSFFLYSKLTVDKSRWQEGNVFSCSVMHEALHNHYTQESLSLSP
light 1: DIVMTQTPSSVSEPVGGTVTIKCQASQSIYSYLSWYQQKPGQRPKLLIYYASTLASGVPSRFKGSGSGTQFTLTISDLECADAATYYCQNNYGSDSNIYGIAFGGGTKVEIKRTVAAPSVFIFPPSDEQLKSGTASVVCLLNNFYPREAKVQWKVDNALQSGNSQESVTEQDSKDCTYSLSSTLTLSKADYEKHKVYACEVTHQGLSSPVTKSFNRGEC
heavy 2: QVQLVESGGGVVQPGGSLRLSCAASGFTFSNAWMHWVRQAPGKGLEWVAQIKDKSQNYATYVAESVKGRFTISRADSKNSIYLQMNSLKTEDTAVYYCRYVHYAAGYGVDIWGQGTTVTVSSASTKGPSVFPLAPSSRSTSESTAALGCLVKDYFPEPVTVSWNSGALTSGVHTFPAVLQSSGLYSLSSVVTVPSSSLGTKTYTCNVDHKPSNTKVDKRVEPKSCDKTHTCPPCPAPELRRGPKVFLFPPKPKDTLMISRTPEVTCVVVDVSQEDPEVQFNWYVDGVEVHNAKTKPREEQFASTYRVVSVLTVLHQDWLNGKEYKCKVSNKGLPSSIEKTISKAKGQPREPQVYTLPPSRKEMTKNQVSLTCLVKGFYPSDIAVEWESNGQPENNYKTTPPYLDSDGSFFLYSKLTVDKSRWQEGNVFSCSVMHEALHNHYTQKSLSLSP
light 2: DIVMTQSPLSLPVTPGEPASISCRSSQPLVHSNRNTYLHWYQQKPGQAPRLLIYKVSNRFSGVPDRFSGSGSGTDFTLKISRVEAEDVGVYYCGQGTQVPYTFGQGTKLEIKRTVAAPSVFIFPPSDEQLKSGTASVVCLLNNFYPREAKVQWKVDNALQSGNSQESVTEQDSKDSTYSLSSTLTLSKADYEKHKVYACEVTHQGLSSPVTKSFNRGEC
B2: MHR0016/CD3 (bispecific antibody, human IgG1, kappa, N297A)
heavy 1: QSVEESGGRLVTPGTPLTLTCTVSGFSLSSNAISWVRQAPGKGLEYIGIISSSGSTYYANWAKGRFTISKTSSTTVDLKMTSATTEDTATYFCARGVDIYGHAYATPYGMDLWGPGTLVTVSSASTKGPSVFPLAPSSRSTSESTAALGCLVKDYFPEPVTVSWNSGALTSGVHTFPAVLQSSGLYSLSSVVTVPSSSLGTKTYTCNVDHKPSNTKVDKRVEPKSCDKTHTCPPCPAPELRRGPKVFLFPPKPKDTLMISRTPEVTCVVVDVSQEDPEVQFNWYVDGVEVHNAKTKPREEQFASTYRVVSVLTVLHQDWLNGKEYKCKVSNKGLPSSIEKTISKAKGQPREPQVYTLPPSREEMTKNQVSLTCLVKGFYPSDIAVEWESNGQPENNYKTTPPYLDSDGSFFLYSKLTVDKSRWQEGNVFSCSVMHEALHNHYTQESLSLSP
light 1: EVVMTQTPASVSEPVGGTVTIKCQASQSISSYLSWYQQKPGQPPKLLIYYSSTLASGVPSRFKGSGSGTEFTLTISDLECADAATYYCQSNYGSSSSSYEDTFGGGTKVEIKRTVAAPSVFIFPPSDEQLKSGTASVVCLLNNFYPREAKVQWKVDNALQSGNSQESVTEQDSKDCTYSLSSTLTLSKADYEKHKVYACEVTHQGLSSPVTKSFNRGEC
heavy 2: B1 heavy 2
light 2: B1 light 2
B3: MHR0010/CD3 (bispecific antibody, human IgG1, kappa, N297A)
heavy 1: QSVEESGGRLVTPGTPLTLTCTVSGFSLSRYAMSWVRQAPGKGLEWIGIIVSSSGSTYYATWATGRFTISKTSTTVDLKITSPTTEDTATYFCARIRGYDNIGYGYPWFYYFNLWGPGTLVTVSSASTKGPSVFPLAPSSRSTSESTAALGCLVKDYFPEPVTVSWNSGALTSGVHTFPAVLQSSGLYSLSSVVTVPSSSLGTKTYTCNVDHKPSNTKVDKRVEPKSCDKTHTCPPCPAPELRRGPKVFLFPPKPKDTLMISRTPEVTCVVVDVSQEDPEVQFNWYVDGVEVHNAKTKPREEQFASTYRVVSVLTVLHQDWLNGKEYKCKVSNKGLPSSIEKTISKAKGQPREPQVYTLPPSREEMTKNQVSLTCLVKGFYPSDIAVEWESNGQPENNYKTTPPYLDSDGSFFLYSKLTVDKSRWQEGNVFSCSVMHEALHNHYTQESLSLSP
light 1: DVVMTQTPASVEAAVGGTVTIKCQASQSISSYLAWYQQKPGQPPKLLIYDASDLASGVPSRFKGSGSGTQFTLTISDLECADAATYYCQSYYYSSSSSYGFAFGGGTKVEIKRTVAAPSVFIFPPSDEQLKSGTASVVCLLNNFYPREAKVQWKVDNALQSGNSQESVTEQDSKDCTYSLSSTLTLSKADYEKHKVYACEVTHQGLSSPVTKSFNRGEC
heavy 2: B1 heavy 2
light 2: B1 light 2
B4: MHR0019/CD3 (bispecific antibody, human IgG1, kappa, N297A)
heavy 1: QSVEESGGRLVAPGTPLTLTCTVSGIDLSSDAMAWVRQAPGKGLEYIGIISSSGSTYYASWAKGRFTISKTSTTVDLKITSPTTEDTATYFCARGVDIYGHAYATPYGMDLWGPGTLVTVSSASTKGPSVFPLAPSSRSTSESTAALGCLVKDYFPEPVTVSWNSGALTSGVHTFPAVLQSSGLYSLSSVVTVPSSSLGTKTYTCNVDHKPSNTKVDKRVEPKSCDKTHTCPPCPAPELRRGPKVFLFPPKPKDTLMISRTPEVTCVVVDVSQEDPEVQFNWYVDGVEVHNAKTKPREEQFASTYRVVSVLTVLHQDWLNGKEYKCKVSNKGLPSSIEKTISKAKGQPREPQVYTLPPSREEMTKNQVSLTCLVKGFYPSDIAVEWESNGQPENNYKTTPPYLDSDGSFFLYSKLTVDKSRWQEGNVFSCSVMHEALHNHYTQESLSLSP
light 1: B2 light 1 with S51A, A81D
heavy 2: B1 heavy 2
light 2: B1 light 2
B5: MHR0060/CD3 (bispecific antibody, human IgG1, kappa, N297A)
heavy 1: B4 heavy 1 with A12T, I26F, D27S, D31Y, A34G, S60N, A102P
light 1: B2 light 1 with S12E, E13V, P14A, S34A, S51A, A81D
heavy 2: B1 heavy 2
light 2: B1 light 2

Where a chain is given by its changes, count along the chain named.

The test deals with recombinant human HER2 S310F ECD protein (human) (UniProt P04626). As to the kind of experiment: SPR, Biacore 8K, 37 C, antibody captured by anti-human Fc on CM4, antigen as analyte, 1:1 model.
As usually defined, the Kd is the constant that tells how readily two partners part at equilibrium. As to B1, the Kd came out at 36.2 nM.
With B2, the Kd was found to be 22.3 nM.
The same measure for B3: 10.8 nM.
Under B4 stands 13.9 nM; under B5, 40.4 nM.
